Experimental findings from the DeepSol protein solubility set are described below.

A short description of the data set: soluble on expression in E. coli; label from the status in PepcDB or PDB records.
Take “MGHHHHHHSHSIKPSTNLVFAKVLEKTRHPNANHLNLVKVKANQKVYEIVCGANNFSVHNWVVLAKLNAELANGLKITPRELRGYVSNGMLCAYSEINPQATSFLTSTDLDGILVLDDNYDHYKTPNQIFNLDDVILDLSIPSNRNDLNGYFWIAKELCAYFDFEYVVDATINHRPHKEIIDVRI”: the “soluble on expression in E. coli” value is given as “not soluble”. Next, “PHMSGLKKFFPYSTNVLKGAAADIALPSLAGKTVFFYFSASWCPPCRAFTPQLIDFYKAHAESKNFEVMLISWDESAEDFKDYYAKMPWLALPFEDRKGMEFLTTGFDVKSIPTLVGVEADSGNIITTQARTMVVKDPEAKDFPWPNVEAKK”: “soluble”; “MSLRIIHICLWLLTGIFAEVSLSAQNPFIYHKGKTYKDVAAYRMEEIIDLNTHTPSTPILYEQQVPEHQSTLSYKVALPLYVRGIFFSRDSRPGDYQWPNNTNRLLPWMFNHLEDLTRSDYASIPSNALPSASGDALLLELADGEYLFAKAIAGSNSLSWFQVNQDGTLTLYVSTLGEDALTGRLPLLIFRKSSSVYHVFSDAYDSLIADKAVSALRKRADKQYFNAFDYLGWCTWEHYHYDIDETKILNDIDAIEASGIPVRYVLIDDGHIANKNRQLTSLVPDKKRFPNGWSRIMKRKQADKIRWIGLWYSLSGYWMGISAENDFPPEIRQVLHSYNGSLLPGTSTEKIETWYEYYVRTMKEYGFDFLKIDNQSFTLPLYMGGTQVIRQAKDCNLALEHQTHRMQMGLMNCMAQNVLNIDHTLYSSVTRASIDYKKYDENMAKSHLFQSYTNTLILGQTVWPDHDMFHSCDTVCGSLMARSKAISGGPVYLSDSPSEFIADNIRPLIDETGKIFRPAAPAIPTPESILTNPLQSGKAYREGHHHHHH”: “soluble”. As for “MAFLDNPTIILAHIRQSHVTSDDTGMCEMVLIDHDVDLEKIHPPSMPGDSGSEIQGSNGETQGYVYAQSVDITSSWDFGIRRRSNTAQRLERLRKERQNQIKCKNIQWKERNSKQSAQELKSLFEKKSLKEKPPISGKQSILSVRLEQCPLQLNNPFNEYSKFDGKGHVGTTATKKIDVYLPLHSSQDRLLPMTVVTMASARVQDLIGLICWQYTSEGREPKLNDNVSAYCLHIAEDDGEVDTDFPPLDSNEPIHKFGFSTLALVEKYSSPGLTSKESLFVRINAAHGFSLIQVDNTKVTMKEILLKAVKRRKGSQKVSGSRADGVFEEDSQIDIATVQDMLSSHHYKSFKVSMIHRLRFTTDVQLGISGDKVEIDPVTNQKASTKFWIKQKPISIDSDLLCACDLAEEKSPSHAIFKLTYLSNHDYKHLYFESDAATVNEIVLKVNYILESRASTARADYFAQKQRKLNRRTSFSFQKEKKSGQQ”, the “soluble on expression in E. coli” value was “soluble”. On to “MSLTFELYSGATFFRSRSAATKKVRDMQKERLKYVQEVYKVLATYVNFPKVCLPELIEKSIYEITEEEIVKKAEELRKIWGLDLISPVPNLIQLAEQNGVIISEANMSNPTLDAVSRWMIGRPFIMLTDNHESAVRRRFNVAHELGHILLHNGVESIHEYSQTELKNIIEYQANLFAAHFLLPSAAFSDSLLSISLEYYIDLKKYWKVSLQSMIQKIYTLALINDDQRLYLNKRIAKNKWKTKEPYDEQLTIEQPEVFQKVYHMILEHQVIPASQLNQAFKLPKEEIEKILGTAIQTEQDKTEIVLELLRSNKEGHHHHHH”, for which the “soluble on expression in E. coli” value was “soluble”. As for “MSLPTTIQAISAEAINLPLTEPFAIASGAQAVAANVLVKVQLADGTLGLGEAAPFPAVSGETQTGTSAAIERLQSHLLGADVRGWRKLAAMLDHAEHEAAAARCGLEMAMLDALTRHYHMPLHVFFGGVSKQLETDMTITAGDEVHAAASAKAILARGIKSIKVKTAGVDVAYDLARLRAIHQAAPTAPLIVDGNCGYDVERALAFCAACKAESIPMVLFEQPLPREDWAGMAQVTAQSGFAVAADESARSAHDVLRIAREGTASVINIKLMKAGVAEGLKMIAIAQAAGLGLMIGGMVESILAMSFSANLAAGNGGFDFIDLDTPLFIAEHPFIGGFAQTGGTLQLADVAGHGVNLEGHHHHHH”, the “soluble on expression in E. coli” value is “soluble”. For the sequence “MGHHHHHHSHMTLEELVACDNAAQKMQTVTAAVEELLVAAQRQDRLTVGVYESAKLMNVDPDSVVLCLLAIDEEEEDDIALQIHFTLIQSFCCDNDINIVRVSGNARLAQLLGEPAETQGTTEARDLHCLPFLQNPHTDAWKSHGLVEVASYCEESRGNNQWVPYISLQER”, the “soluble on expression in E. coli” value is on record as “soluble”. As for “MSSYKNILVAIDGSYESELAFEKGVSVALRNDANLLLTHVVDTRALQSVATFDAYIYEKLEQEAHSVLDDYENQARERGLEKVRQIIEFGNPKPLLATEIPEREHVDLIMLGATGLNAFERLLIGSSSEYILRHAKVDLLVVRDPEKTL”, the entry is “not soluble”. For the sequence “ANGLITKIWGTAGWTFNHAVTFGYPLNPTSDDKRRYKNYFISLGDVLPCRLCRESYKKFITTGKTALTNEVLRNRHTLTKWFYDVHNAVNNKLEVDYGLSYEDVVNKYESFRAK”, the “soluble on expression in E. coli” value is given as “soluble”.

As to “MSNQLAVSDVPTAAWTSQQPRSPRMFDQENGFSQNFQPFMQQNKTVNPCTISDDVREEMMRLRRRENAFKTALCKTFQLTKACSYGEQCKFAHSVEELQLKHQNLGINNPKYKTVLCDNFSTTGHCKYGTKCQFIHRTVEPASLKIQNPLVPRFPSWFAPPSSLAREFLCLNHFEASTSSSTTQKLTSSNLSTSTFRYY”, the “soluble on expression in E. coli” value is “not soluble”. In the case of “MGSDKIHHHHHHMQLVFDFPVNPKYSLDNFVICSGNETAYRFVRRLTDDEGAENLLYLHGPSGSGKTHLLMAIGAHFSARAGLSSVPCISFKDVDEVYGGEYPAEAVSKLAERFRNAPALLVDDLHLIPDQQAVRVELWQLFNDFYQAGRPIAITGLYPPKELPTIDDHLISRLLWGLVARVDISDDDSRRLIMKKLADDRQIVLPADVIDYLLLHVRRDVPSLIEALDAISRYALAAKRKVSVRLAREALAFHS”, the “soluble on expression in E. coli” value is listed as “not soluble”.

With “MGSDKIHHHHHHMINPQWLHTFAVLVEKGNFTRTAEAIGITQAAVSQHISRLEEEYGTLFLRRPRQLEITPIGENLLTYVKDVECAQKRLQQKLIHDDAEVGDISLITPGSIGLTLFPLLIELQQAFPALNIRHRFAPDSEIVASVLANEHEIGMVTLKPSDPRIHSTHFTEEPLELVVPACHKQNEWVDLQRLGFISHPDGEAMATRLLSRKYPSNPGIQDIPCKGFTNQISLILEPVAKGLGFTVIPQYARKAFERQQDIYVVECGSQVVDTIWLIHRAEWPLSRRAQKAITFLKGKI”, the “soluble on expression in E. coli” value is recorded as “not soluble”. As for “MDPLEALQKHVQRPEEFPLREVTVSGISYVAFGDYAYKKDTETSLQIYGKSDEFYSLESLVVFLKYSHENHGVYVKEAAAAGVRAVTRIDRKNVTEYLQGDRTDFPALMNQVNPLSLRQLLHSSEPEAKKPRLDGEAAGEPMDTSTSAEICSKIPIFLKINSIFFPDEPQESAVSAAKKEVEIRALNDNLTKDRIAEMRRKRQSHREKGIVTIETTFPQKPDFLIKKFQFFSESLSTLTSASLPKTRIHKTRENVMLGARDLSNVLDIITSAQRQWDLNEKKEKVAAVHATNLSKDQSGAAGGQQQRSGYSRYAQEAFAHEKTKEIQTEGSFIGSNFSSIKQGHHAVQKAPDAPPGRPPLAKPIQLLTSSTATSSGSSAAQNGSKRTSRSPIIIVPSAMNTMINLYNVRDILQNFSYVPVDQRRKETNKKPVDLAIQRQKNGVTYNIRVIDNAEKLANDDWDRVIAVFVMGVAWQFKGWKWNGNPTDIFTHIPAFHFHVDQDKPVAQVMQWNVHKIPVSATKRHMDKARFSQVWETIENFVRKNKPHLTARLGL”, the entry is “not soluble”; as for “MKQQEVRQRAFAMPLTSPAFPPGPYRFVNREYMIITYRTDPAAIEAVLPEPLQMAEPVVRYEFIRMPDSTGFGDYSESGQVIPVTFRGERGSYTLAMFLDDQPPLAGGRELWGFPKKAGKPRLEVHQDTLVGSLDFGPVRIATGTMGYKYEALDRSALLASLAEPNFLLKIIPHVDGSPRICELVRYHTTDVAIKGAWSAPGSLELHPHALAPVAALPVLEVLSARHFVCDLTLDLGTVVFDYLRQ”, “soluble”; as for “MKKIITLFGACALAFSMANADVNLYGPGGPHTALKDIANKYSEKTGVKVNVNFGPQATWFEKAKKDADILFGASDQSALAIASDFGKDFNVSKIKPLYFREAIILTQKGNPLKIKGLKDLANKKVRIVVPEGAGKSNTSGTGVWEDMIGRTQDIKTIQNFRNNIVAFVPNSGSARKLFAQDQADAWITWIDWSKSNPDIGTAVAIEKDLVVYRTFNVIAKEGASKETQDFIAYLSSKEAKEIFKKYGWREH”, “soluble”. With “MKIGIVIPAHNEEQHLSACLQSIQQAIQHTGHEQVEILVVLDSCTDQSRSVVESHQVNWIECNFACVGKARDLGIRQLIDQGVIWVACTDADTIVDSDWILCQMLHQPTDAICGVVTLDDLSHLSVQQQQKYLAHYQDSMDHQHIHGANLSFSAEAYIQAGGFEPIPCHEDVSLIEKFIKQCCKVTRSNLEHHHHHH”, the “soluble on expression in E. coli” value was “not soluble”.

Regarding “MGSSHHHHHHSSGLVPRGSHMYLINQNGWIEVICGSMFSGKSEELIRRVRRTQFAKQHAIVFKPCIDNRYSEEDVVSHNGLKVKAVPVSASKDIFKHITEEMDVIAIDEVQFFDGDIVEVVQVLANRGYRVIVAGLDQDFRGLPFGQVPQLMAIAEHVTKLQAVCSACGSPASRTQRLIDGEPAAFDDPIILVGASESYEPRCRHCHAVPTKQR”, the “soluble on expression in E. coli” value is on record as “soluble”.

With “MGSDKIHHHHHHMRDLNRLDDLLQGYEFMKKINDNWEIIENGLNLSDYEIEHLRKRITNLVIASGGNSSNEVVDLRVSKLQNKIFELAKDRLDSDLDSLADSLKNMMTRITSIELTNEQVLYMLNRLYGLDAGSIEVYVDSVSGDDTAGTGEKNKPFKTINKATMNFPRVFNSNTLRLWINPGRYDEDVIIPPLSGVTLYILSSNYETVDPAAGPTTCQIRSISVSDTSGYIYIAGIEQTNTAGTTKNYFIKAIRCGFVRITKCRMAFNTKAIDPFTAVFIDACSADVNGCYFASQNVDVRGYNTARVEVQNTTHGAKSAIGLYPQSADIFNLNSGTWEADTPTKLSGGGVVRT”, the “soluble on expression in E. coli” value is “not soluble”. As for “MWERSLRDTMRGRTSTLKVAILCFEKDRPKLEALKEILGRSYEVEFVDYSKDVWDDVLQYDCIVAYLASGIVVRGICGRLRGKWKDPAVIVLDKPLKHAVVMLGGHHGGNEVAKKLEEAGLKAVITTAMEFTEGYSVGVGFRKNATADEILEAIAMALEEVGGRMEEIRVISTVDAKRDSAIVEVANRLKRPLIFVRAEEINSMDIRETKAVKIGVKNVAEACAIYASNSGELILPKRVYGGVTVAIAW”, the entry is “not soluble”; as for “MAQQLLMPKATAVWLVDNTALSFDQIAQFCKLHPLEVKAIADGESAQGIKGLDPIATGQLSRDEIARAEGNPNHKLKLSEPKVRVPDSKRKGPRYTPVSKRQDRPNAILWLVRNHPELKDAQISRLVGTTKATIEQIRERTHWNSANLTPMDPVTLGLCSQIDLDLEVERASKGRPLPSAAETGATLESAQETEKLDYGQDREEEKEIDADAVFAKLKSLKSDRKDDEEDDY”, “not soluble”; as for “MGSDKIHHHHHHMIWYLEKWRRRWILGRKPIRESVWQSAVDQLPFLHGLTQDEFRQLREWTSIFLHDKKINGVQGLVVTEAMRVMIAVQACLLILKLDPEYYDDWVEVIVYPGKFILDHAYTDETGIVHTRRMVASGESWQAGPVILSWEDVVHVHHESGYNVVIHEFAHKLDMLNGSANGYPPLHSDMDPRIWAVVFSRAYEIFCRQVERGEVTIMDPYAAEDPAEFFAVSSEVFFTRPYRIKQYFPEMYQQLARYYRQDPAARQECETDS”, “not soluble”.
